Patent US20190218308A1 (INNATE PHARMA, published 2019)

Experiments:
[1] = biological target: T1, CD39-M2 extracellular domain recombinant protein (soluble human CD39) (human, UniProt P49961 38-478); experiment: cell-based or functional assay
T1 sequence: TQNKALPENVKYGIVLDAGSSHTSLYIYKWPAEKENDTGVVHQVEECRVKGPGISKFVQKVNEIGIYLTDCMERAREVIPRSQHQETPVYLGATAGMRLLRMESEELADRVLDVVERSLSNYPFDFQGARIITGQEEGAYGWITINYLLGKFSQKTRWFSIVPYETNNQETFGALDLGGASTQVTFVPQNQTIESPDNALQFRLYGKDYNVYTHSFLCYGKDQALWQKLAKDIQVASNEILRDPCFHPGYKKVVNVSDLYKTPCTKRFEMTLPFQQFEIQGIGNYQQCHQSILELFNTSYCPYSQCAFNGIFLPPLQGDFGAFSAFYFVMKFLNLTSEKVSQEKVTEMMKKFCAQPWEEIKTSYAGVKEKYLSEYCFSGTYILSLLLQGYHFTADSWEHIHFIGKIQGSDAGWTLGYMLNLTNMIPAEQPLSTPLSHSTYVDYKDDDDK

[2] = biological target: T2, human CD39 (NTPDase1, ENTPD1), membrane-bound, on cells (human, UniProt P49961 1-510); experiment: cell-based or functional assay
T2 sequence: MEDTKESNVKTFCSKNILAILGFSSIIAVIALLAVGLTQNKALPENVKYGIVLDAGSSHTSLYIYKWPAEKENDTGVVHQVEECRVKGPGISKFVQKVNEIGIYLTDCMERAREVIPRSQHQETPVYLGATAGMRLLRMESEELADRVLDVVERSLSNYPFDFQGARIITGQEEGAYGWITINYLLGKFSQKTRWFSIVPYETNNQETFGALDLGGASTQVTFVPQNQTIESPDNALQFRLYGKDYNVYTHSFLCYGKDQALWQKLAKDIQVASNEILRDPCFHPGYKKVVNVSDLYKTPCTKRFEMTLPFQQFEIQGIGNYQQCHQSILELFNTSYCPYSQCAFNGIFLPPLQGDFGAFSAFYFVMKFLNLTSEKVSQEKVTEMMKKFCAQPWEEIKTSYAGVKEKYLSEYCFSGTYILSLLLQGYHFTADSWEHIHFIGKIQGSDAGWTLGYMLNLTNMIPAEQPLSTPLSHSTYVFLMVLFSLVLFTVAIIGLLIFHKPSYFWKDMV

[3] = biological target: T3, Human CD39-L3, also known as NTPDase3 or ENTPD3 (human, UniProt O75355 44-485, limits assumed); experiment: ELISA on coated recombinant human CD39-L3 (panel huCD39 L3)
T3 construct: Recombinant protein coated in ELISA
T3 sequence: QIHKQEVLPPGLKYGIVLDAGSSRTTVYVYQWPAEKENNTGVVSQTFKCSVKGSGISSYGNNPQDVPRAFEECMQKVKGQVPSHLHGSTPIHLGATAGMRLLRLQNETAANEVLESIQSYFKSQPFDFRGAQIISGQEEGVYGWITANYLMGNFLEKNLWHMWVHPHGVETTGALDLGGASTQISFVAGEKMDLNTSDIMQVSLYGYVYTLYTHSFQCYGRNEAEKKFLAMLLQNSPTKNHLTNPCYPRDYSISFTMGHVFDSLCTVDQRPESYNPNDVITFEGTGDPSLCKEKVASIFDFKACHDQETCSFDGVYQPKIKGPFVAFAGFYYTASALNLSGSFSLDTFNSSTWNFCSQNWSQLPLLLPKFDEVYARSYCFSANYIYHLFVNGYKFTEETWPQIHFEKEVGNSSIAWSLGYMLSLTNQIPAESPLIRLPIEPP
Experimental: (§1) Wells were washed in TBS Tween 20, and further saturated 2H at RT in TBS Blocking buffer. Dose range concentration of primary antibody was incubated in TBS blocking buffer for 2 h at RT. Wells were washed in TBS Tween 20. […] Optical density was measured on Enspire™ at OD=450.

[4] = biological target: T4, Human CD39-L4, also known as NTPDase5 or ENTPD5 (human, UniProt O75356 25-428); experiment: ELISA on coated recombinant human CD39-L4 (panel huCD39 L4)
T4 construct: Recombinant protein coated in ELISA
T4 sequence: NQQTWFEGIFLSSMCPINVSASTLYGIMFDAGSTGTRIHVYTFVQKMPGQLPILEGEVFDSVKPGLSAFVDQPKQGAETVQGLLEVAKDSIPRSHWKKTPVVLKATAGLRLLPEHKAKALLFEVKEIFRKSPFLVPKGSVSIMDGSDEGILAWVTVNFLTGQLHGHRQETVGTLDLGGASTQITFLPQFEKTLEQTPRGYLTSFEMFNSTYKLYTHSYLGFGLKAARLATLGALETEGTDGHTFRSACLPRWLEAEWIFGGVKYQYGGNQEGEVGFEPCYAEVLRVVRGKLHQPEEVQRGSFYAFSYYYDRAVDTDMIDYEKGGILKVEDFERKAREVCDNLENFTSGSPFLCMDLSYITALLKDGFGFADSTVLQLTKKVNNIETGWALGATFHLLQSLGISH
Experimental: as §1

[5] = biological target: T5, CD39 mutant 5 (human, UniProt P49961 1-510); experiment: flow cytometry, Hek-293T cells transfected with CD39 mutant 5 (panel M5), Comp-Alexa Fluor 647-A
T5 construct: Expressed on Hek-293T cells; also called M5
T5 chain: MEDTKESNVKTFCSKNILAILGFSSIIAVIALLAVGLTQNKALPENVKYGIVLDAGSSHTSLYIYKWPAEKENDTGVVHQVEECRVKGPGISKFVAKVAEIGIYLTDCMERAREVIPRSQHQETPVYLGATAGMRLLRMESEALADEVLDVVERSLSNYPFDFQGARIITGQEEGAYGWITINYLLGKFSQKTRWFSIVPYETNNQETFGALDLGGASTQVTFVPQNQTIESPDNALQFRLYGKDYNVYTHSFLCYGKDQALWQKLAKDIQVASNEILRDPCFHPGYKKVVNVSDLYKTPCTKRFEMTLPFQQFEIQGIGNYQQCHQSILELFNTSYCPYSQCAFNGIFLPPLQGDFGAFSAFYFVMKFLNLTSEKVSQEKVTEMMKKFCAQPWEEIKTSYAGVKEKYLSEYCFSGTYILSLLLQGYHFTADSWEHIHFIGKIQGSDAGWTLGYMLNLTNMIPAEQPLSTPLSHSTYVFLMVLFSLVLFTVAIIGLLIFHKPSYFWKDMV
Experimental: Mutants were transfected in Hek-293T cells, as shown in the table 1, using numbering of SEQ ID NO: 2. […] Mutant 19 includes substitutions at residues R138, M139 and E142.
Mutants were transfected in Hek-293T cells, as shown in the table 1, using numbering of SEQ ID NO: 2. Dose-ranges of test antibodies (10-2.5-0.625-0.1563-0.0391-0.0098-0.0024-0.0006 μg/ml) are tested on the 20 generated mutants by flow cytometry.

- IC50, inhibition of the ATPase activity of soluble CD39 protein [1]: 0.003 µg/mL
- IC50 (inhibition of 50% of the enzymatic activity of CD39 expressed by 50,000 Ramos cells) [2]: 0.05 µg/mL
- binding result [3]: no binding (tested: about 50 µg/ml)
- binding result [4]: no binding (tested: about 50 µg/ml)
- binding result [5]: binds
B1: antibody I-394 (antibody, human IgG1, kappa, V domains shown)
VH: EVQLQQSGPELVKPGASVKMSCKASGYTFTDYNMHWVKQSHGRTLEWIGYIVPLNGGSTFNQKFKGRATLTVNTSSRTAYMELRSLTSEDSAAYYCARGGTRFAYWGQGTLVTVSA
VL: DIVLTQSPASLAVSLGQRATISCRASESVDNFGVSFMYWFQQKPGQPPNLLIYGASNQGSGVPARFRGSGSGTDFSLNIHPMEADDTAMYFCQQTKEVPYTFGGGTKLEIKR
